Results on 50 sequences are retold here after the supplement of paper PMC9112550, “Optimization of the antimicrobial peptide Bac7 by deep mutational scanning” (BMC Biology, 2022).

The data set deals with Escherichia coli TOP10. The data set can be described thus: shrunken log2 fold change of peptide-encoding DNA abundance (4.5 h post-induction vs induction); higher = less antimicrobial activity (less host growth inhibition). The following applies: time post-induction: 4.5 h; library: site-saturation at positions 5, 18, 19, 20.
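Further: peptides expressed intracellularly from a pBAD plasmid library in pooled LB shake-flask culture, induced with 0.3% L-arabinose, DNA abundance read by NGS, three biological replicates, DESeq2 with apeglm shrinkage.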

Turning to RRIRNRPPRLPRPRPRPEGNPRP, the “shrunken log2 fold change” value was -0.0214.
Turning to RRIRARPPRLPRPRPRPAWCPRP, the “shrunken log2 fold change” value was determined as 1.28.
As to RRIRGRPPRLPRPRPRPHQRPRP, the “shrunken log2 fold change” value turned out to be 0.23.
Under RRIRARPPRLPRPRPRPKWVPRP stands 0.222; under RRIRARPPRLPRPRPRPELIPRP, 0.606; under RRIRERPPRLPRPRPRPPVFPRP, -0.152.
With RRIRNRPPRLPRPRPRPEAMPRP, the “shrunken log2 fold change” value amounted to 0.616.
Under RRIRVRPPRLPRPRPRPMTNPRP stands -0.256; under RRIRMRPPRLPRPRPRPALQPRP, 0.791; under RRIRVRPPRLPRPRPRPMFGPRP, 0.00478.
Regarding RRIRTRPPRLPRPRPRPARWPRP, the “shrunken log2 fold change” value was 0.471.
Under RRIRFRPPRLPRPRPRPATCPRP stands 0.00724; under RRIRGRPPRLPRPRPRPFHDPRP, -0.0838.
Under RRIRNRPPRLPRPRPRPTWMPRP stands -0.155.
For RRIRVRPPRLPRPRPRPYRIPRP, the “shrunken log2 fold change” value was determined as 0.0112.
Turning to RRIRYRPPRLPRPRPRPLGLPRP, the “shrunken log2 fold change” value is -0.126.
As to RRIRGRPPRLPRPRPRPKHAPRP, the “shrunken log2 fold change” value came out at 1.21.
RRIRFRPPRLPRPRPRPINVPRP: the “shrunken log2 fold change” value is -0.195.
On to RRIRWRPPRLPRPRPRPLYMPRP, for which the “shrunken log2 fold change” value is -0.684.
With RRIRWRPPRLPRPRPRPENVPRP, the “shrunken log2 fold change” value is 0.0417.
Under RRIRGRPPRLPRPRPRPSWQPRP stands 0.109.
With RRIRDRPPRLPRPRPRPETDPRP, the “shrunken log2 fold change” value turned out to be 0.0208.
With RRIRYRPPRLPRPRPRPHYTPRP, the “shrunken log2 fold change” value was -0.936.
Under RRIRFRPPRLPRPRPRPFHLPRP stands -0.391.
To RRIRERPPRLPRPRPRPQAAPRP belongs -0.194.
To RRIRKRPPRLPRPRPRPIEKPRP belongs 0.694.
Regarding RRIRIRPPRLPRPRPRPTHNPRP, the “shrunken log2 fold change” value was -0.145.
RRIRVRPPRLPRPRPRPPMIPRP: the “shrunken log2 fold change” value was -0.523.
RRIRVRPPRLPRPRPRPMDNPRP: the “shrunken log2 fold change” value was 0.0397.
As for RRIRNRPPRLPRPRPRPMMTPRP, the “shrunken log2 fold change” value was -0.312.
With RRIRFRPPRLPRPRPRPANHPRP, the “shrunken log2 fold change” value was -0.264.
Under RRIRVRPPRLPRPRPRPKVTPRP stands 0.0458; under RRIRRRPPRLPRPRPRPNKGPRP, 0.128.
To RRIRMRPPRLPRPRPRPCVEPRP belongs 0.755.
To RRIRYRPPRLPRPRPRPNNGPRP belongs -0.156.
On to RRIRMRPPRLPRPRPRPMPPPRP, for which the “shrunken log2 fold change” value worked out at 1.07.
On to RRIRRRPPRLPRPRPRPGAIPRP, for which the “shrunken log2 fold change” value turned out to be 0.179.
To RRIRQRPPRLPRPRPRPLHSPRP belongs -0.295; to RRIRMRPPRLPRPRPRPQQNPRP, 0.281; to RRIRLRPPRLPRPRPRPFIVPRP, -0.238.
Consider RRIRFRPPRLPRPRPRPGEMPRP, for which the “shrunken log2 fold change” value worked out at 0.123.
To RRIRKRPPRLPRPRPRPAPVPRP belongs 0.668; to RRIRVRPPRLPRPRPRPRRLPRP, 0.135; to RRIRVRPPRLPRPRPRPGQKPRP, 0.00253.
As to RRIRPRPPRLPRPRPRPKSAPRP, the “shrunken log2 fold change” value was 0.532.
RRIRCRPPRLPRPRPRPLCPPRP: the “shrunken log2 fold change” value is -0.254.
To RRIRIRPPRLPRPRPRPCPYPRP belongs -0.269.
Under RRIRERPPRLPRPRPRPRECPRP stands -0.018; under RRIRMRPPRLPRPRPRPCTDPRP, -0.132.
Under RRIRYRPPRLPRPRPRPCFHPRP stands -1.42.
